Results: US20260070984A1 (Boehringer Ingelheim, published 2026)
Substitutions are numbered along the chain they refer to. Read-outs that look alike come from different tables or passages of the source.

B1: Antibody C (antibody, human IgG4 S228P, kappa, V domains shown)
VH: EVQLVESGGGLVQPGGSLRLSCAASGFTFSDYYMSWVRQAPGKGLEWVAYISSGGGSSYYPDAVKGRFTISRDNAKQSLYLQMQSLRAEDTAVYYCARLPHYFAMDYWGQGTLVTVSS
VL: DIQMTQSPSSLSASVGDRVTITCQASQSISSDYLHWYQQKPGKAPKLLIYRTSNLETGVPSRFSGSGSGTDFTFTISSLQPEDIATYYCQQGTSLPRAFGQGTKLEIKR
notes: Humanized 723C2, human IgG4Pro/kappa; also called Ab C; 723C2-IgG4Pro-461-47 with IgK-462-07
B2: Chimeric 723C2 in IgG4Pro (antibody, V domains shown)
VH: EVQLVESGGGLVQPGGSLKLSCAASGFTFSDYYMSWVRQTPEKRLEWVAYISSGGGSSYYPDSVKGRFTISRDNTKNTLYLQMSSLKSEDTAVYYCARLPHYFAMDYWGQGTSVTVSS
VL: EIVLTQSPTTMAASPGEKITITCSASSSISSDYLHWYQQKPGFSPELLIYRTSNLASGVPARFSGSGSGTSYSLTIGSMEAEDVATYYCQQGTSLPRAFGGGTKLEIKR
B3: antibody 723C2 in human IgG4Pro backbone without the DC to DY mutation in H-CDR3 (antibody, V domains shown)
VH: B2 VH with Y107C
VL: EIVLTQSPTTMAASPGEKITITCSASSSISSDYLHWYQQKPGFSPELLIYRTSNLASGVPARFSGSGSGTSYSLTIGSMEAEDVATYYCQQGTSLPRAFGGGTKLEIK
notes: Mouse 723C2 variable domains (H-CDR3 ending DC) in human IgG4Pro backbone; also called 723C2-4P
B4: PD1AB-6-4P (antibody, V domains shown)
VH: EVQLVQSGAEVKKPGATVKISCKASGFNIKDTYMHWVQQAPGKGLEWMGRIDPANGDRKYDPKFQGRVTITADTSTDTAYMELSSLRSEDTAVYYCARSGPVYYYGSSYVMDYWGQGTTVTVSS
VL: DIVMTQSPDSLAVSLGERATINCKSGQSVLYSSNQKNFLAWYQQKPGQPPKLLIYWASTRESGVPDRFSGSGSGTDFTLTISSLQAEDVAVYYCHQYLYSWTFGQGTKLEIK

What was measured:
[1] = molecular target: T1, human PD-1 expressed on cells (human, UniProt Q15116 25-288); test: CHO-PD1-PDL1 DELFIA Eu TRF assay: enhancement of biotin labeled PD-L1 binding to CHO cells expressing PD-1, antibody titrated
T1 construct: whole, on cells; One entry is used for cell-surface human PD-1 in all cell assays; also called hPD-1; Jurkat cells expressing the human PD-1 protein
Description: (§1) 10,000 cells were plated and incubated overnight at 37° C.±5% CO2 incubator (humidified incubator). […] Plates were washed twice with 50 μl of 1× TRF Wash Buffer. 20 μL of Eu-Streptavidin reagent was added to the assay plate, and incubated at room temperature for one hour. Enhancement Solution was added and incubated for 30 minutes at RT.

[2] = molecular target: T1, human PD-1 expressed on cells; test: cell-based or functional assay
[3] = molecular target: T1, human PD-1 expressed on cells; test: cell-based or functional assay; remark: listed apart in the source
[4] = molecular target: T1, human PD-1 expressed on cells; test: flow cytometry, AlexaFluor 647 labeled antibody on Jurkat cells expressing human PD-1
Description: Selectivity of anti-PD-1 antibody to human PD-1 protein in a cell-based assay was evaluated by flow cytometry. […] As a control, parental and PD-1 expressing Jurkat cells were incubated with anti-TNP isotype control antibodies. Following incubation, the cells were washed to remove non-bound antibody, fixed in PFA, and then washed in staining buffer. Binding of the antibody to the Jurkat cells was evaluated by flow cytometry. Unstained cells were also evaluated by flow cytometry as a negative control.

[5] = molecular target: T1, human PD-1 expressed on cells; test: cell-based or functional assay; remark: listed apart in the source
[6] = molecular target: T1, human PD-1 expressed on cells; test: cell-based or functional assay; remark: listed apart in the source
[7] = molecular target: T1, human PD-1 expressed on cells; test: cell-based or functional assay; remark: listed apart in the source
[8] = molecular target: T2, cynomologous PD-1 (cynomolgus monkey, UniProt B0LAJ3 25-170); test: SPR, ProteOn XPR36, 1:1 binding model
T2 construct: Used in SPR; also called cynomolgus PD-1; recombinant cynomologus PD-1
Description: C) Affinity and kinetic data for the anti-PD-1 antibodies binding to cynomologous PD-1 were measured on the ProteOn™ XPR36 surface plasmon resonance optical biosensor, and globally fit to a 1:1 binding model (Table 11).

[9] = molecular target: T3, recombinant human PD-1 (human, UniProt Q15116 25-167, limits assumed); test: SPR, ProteOn XPR36, 1:1 binding model
T3 construct: Soluble recombinant protein used in SPR; also called PDCD1; purified recombinant human PD-1
Description: Antibody PD1AB-6-4P (antibody in IgG4Pro backbone disclosed in WO2017/058859 to Celgene) was also tested.

[10] = molecular target: T1, human PD-1 expressed on cells; test: cell-based or functional assay; remark: listed apart in the source
[11] = molecular target: T3, recombinant human PD-1; test: SPR, ProteOn XPR36
Description: Kinetics and binding affinities were measured using the ProteOn™ XPR36 (Biorad, Hercules, CA) surface plasmon resonance optical biosensor using material generated from transient transfection following single column purification.

[12] = molecular target: T1, human PD-1 expressed on cells; test: DELFIA Eu TRF assay: enhancement of biotin labeled PD-L1 binding to CHO cells expressing PD-1
Description: as §1

[13] = molecular target: T1, human PD-1 expressed on cells; test: flow cytometry: enhancement of PDL1-biotin/Streptavidin-APC binding to CHO cells expressing PD-1
Description: A second cell-based assay where PD-1 was expressed on CHO cells was also utilized to evaluate PD-1/PD-L1 interactions. […] 50 μl of 2×10⁶ cells/ml were added to each well (100,000 cells/well). Cells were centrifuged and re-suspended in 50 μl of the indicated antibody concentrations and incubated for 60 minutes on ice. […] Cells were washed and resuspended in 180 μl stain buffer +20μ PFA and data was acquired on a BD LSR II.

[14] = molecular target: T2, cynomologous PD-1; test: SPR, ProteOn XPR36

T3 sequence (Q15116 25-167 limits assumed): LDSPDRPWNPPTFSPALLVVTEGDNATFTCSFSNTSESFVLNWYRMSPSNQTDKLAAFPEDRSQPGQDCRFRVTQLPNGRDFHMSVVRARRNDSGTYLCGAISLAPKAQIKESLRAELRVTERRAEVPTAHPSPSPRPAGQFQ
T2 sequence (B0LAJ3 entry or part of it limits assumed): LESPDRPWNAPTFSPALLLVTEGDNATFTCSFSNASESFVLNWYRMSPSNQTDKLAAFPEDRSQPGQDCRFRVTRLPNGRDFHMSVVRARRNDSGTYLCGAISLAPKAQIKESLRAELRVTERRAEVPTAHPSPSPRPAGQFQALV
T1 sequence (Q15116 25-288): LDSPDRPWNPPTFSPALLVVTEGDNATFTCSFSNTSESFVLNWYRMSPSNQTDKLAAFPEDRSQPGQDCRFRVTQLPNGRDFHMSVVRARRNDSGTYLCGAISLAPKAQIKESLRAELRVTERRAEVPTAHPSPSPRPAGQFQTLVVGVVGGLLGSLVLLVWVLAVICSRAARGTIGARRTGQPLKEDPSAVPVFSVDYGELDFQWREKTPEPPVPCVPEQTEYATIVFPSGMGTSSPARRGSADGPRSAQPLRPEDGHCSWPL

Row | Binder | IC50 Values (pM), Geomean, inhibition of IL-21 [2] [pM] | Emax Values (%), Average, inhibition of IFNγ [5] [%] | IC50 Values (pM), Geomean, inhibition of IFNγ [5] [pM] | Emax Values (%), Average, inhibition of IL-17A [6] [%] | IC50 Values (pM), Geomean, inhibition of IL-17A [6] [pM] | Kd [8] [nM] | koff [8] [s⁻¹] | kon [8] [M⁻¹ s⁻¹] | Kd [9] [nM] | koff [9] [s⁻¹] | kon [9] [M⁻¹ s⁻¹] | other results
1 | B1 | 6 | 46.8 | 17.7 | 62.9 | 32.5 | 41 | 0.00633 | 154000 | 2.65 | 0.000463 | 175000 | EC50 [1]: 2.4 nM; IC50 Values (nM), Geomean, inhibition of IFNγ [3]: 0.03 nM; EC50 (read off the curve) [4]: ~10 nM; IC50 Values (nM), Geomean, inhibition of IFNγ [7]: 0.03 nM
2 | B2 | 12 | 66.5 | 18 | 70 | 14.4 | 38.9 | 0.00721 | 185000 | 2.58 | 0.000582 | 226000 | Emax Values (%), inhibition of NFAT activity [10]: 42.6%; IC50 Values (nM), inhibition of NFAT activity [10]: 0.13 nM; Kd [11]: 2.58 nM; koff [11]: 0.000582 s⁻¹; kon [11]: 226000 M⁻¹ s⁻¹
3 | B3 |  |  |  |  |  |  |  |  |  |  |  | EC50 (read off the curve) [12]: ~2 nM; EC50 (read off the curve) [13]: ~6 nM
4 | B4 | 50 | 40.1 | 31.5 | 67.5 | 176 |  |  |  |  |  |  | Kd [14]: 25 nM
